{"source": "paper PMC3742741", "about": "(PLoS ONE, 2013)", "binders": {"B1": {"name": "BAP29 full-length C-terminal cytoplasmic region (residues 125-237), untagged (protein)", "chain": "TQLAKELSNKGVLKTQAENTNKAAKKFMEENEKLKRILKSHGKDEECVLEAENKKLVEDQEKLKTELRKTSDALSKAQNDVMEMKMQSERLSKEYDQLLKEHSELQDRLERGN"}, "B2": {"name": "BAP31 vDED (variant of death effector domain of human BAP31, residues 168-233), untagged (domain or fragment, UniProt P51572 168-233, looked up)", "chain": "LDVGNAEVKLEEENRSLKADLQKLKDELASTKQKLEKAENQVLAMRKQSEGLTKEYDRLLEEHAKL", "notes": "BAP31, human, UniProt P51572, vDED domain, residues 168-233; Vector pNIC28-Bsa4; also called vDED domain of BAP31; source: E. coli BL21(DE3) Rosetta 2, purified (IMAC, TEV cleavage, reverse IMAC, gel filtration); not shown: His6, N-terminal, cleaved"}, "B3": {"name": "BAP31 full-length C-terminal cytoplasmic region (residues 124-242), untagged (domain or fragment, human, UniProt P51572 124-242, looked up)", "chain": "SQQATLLASNEAFKKQAESASEAAKKYMEENDQLKKGAAVDGGKLDVGNAEVKLEEENRSLKADLQKLKDELASTKQKLEKAENQVLAMRKQSEGLTKEYDRLLEEHAKLQAAVDGPMD", "notes": "BAP31, human, UniProt P51572, C-terminal cytoplasmic region, residues 124-242; also called BAP31 Cyt; BAP31 full-length cytoplasmic; source: E. coli BL21(DE3) Rosetta 2, purified (IMAC, TEV cleavage, reverse IMAC, gel filtration); not shown: His6, N-terminal, cleaved"}, "B4": {"name": "Selenomethionine labeled BAP31 vDED (residues 168-233), untagged (domain or fragment, human, UniProt P51572 168-233, looked up)", "chain": "LDVGNAEVKLEEENRSLKADLQKLKDELASTKQKLEKAENQVLA[SeMet]RKQSEGLTKEYDRLLEEHAKL", "notes": "BAP31, human, UniProt P51572, vDED domain, residues 168-233; Same construct as m1, with selenomethionine; used for the P3_(2)21 crystal form at pH 4.2 (residues 169-220 modeled); also called BAP31 vDED acidic pH (P3_(2)21 form); source: E. coli BL21(DE3) Rosetta 2 grown in minimal medium, purified as the native protein with 2 mM TCEP; not shown: His6, N-terminal, cleaved"}}, "key": {"[1]": {"biological_target": "T1, BAP31 full-length C-terminal cytoplasmic region (residues 124-242), untagged (Homo sapiens (Human), UniProt P51572)", "T1 chain": "B3 chain", "assay": "analytical gel filtration"}, "[2]": {"biological_target": "T2, His-tagged full-length C-terminal cytoplasmic domain of BAP31 (residues 124-242) (Homo sapiens (Human), UniProt P51572)", "T2 chain": "B3 chain", "assay": "IMAC pull-down"}, "[3]": {"biological_target": "the molecule itself", "assay": "SEC; calibrated gel filtration, Superdex 200, 10-400 µM protein, 20 mM Na-P pH 7.0, 150 mM NaCl, 0.1 mM TCEP; Stoke's radius compared with radii of gyration of dimer and tetramer"}, "P51572": {"biological_target": "P51572", "assay": "native MS; native ESI MS, 150 mM NH4 acetate pH 7, 1.24 mg/mL further diluted in 15% acetonitrile and 5% 2-propanol, LTQ-Orbitrap Velos"}, "[4]": {"biological_target": "the molecule itself", "assay": "CD thermal unfolding against protein concentration; midpoint of thermal unfolding at pH 6.0 with 0.25 µM to 5 µM protein"}, "[5]": {"biological_target": "T3, His-tagged full-length C-terminal cytoplasmic domain of BAP29 (residues 125-237) (Homo sapiens (Human), UniProt Q9UHQ4)", "T3 chain": "B1 chain", "assay": "IMAC pull-down"}, "[6]": {"biological_target": "the molecule itself", "assay": "crystal structure; twinned P3_(2)21 form, selenomethionine labeled protein, crystal grown at 19 °C in 100 mM Na citrate pH 4.2, 33% PEG 400, 200 mM LiSO4"}}, "note": "Square brackets hold non-standard residues; d marks the D form. SeMet = C[Se]CC[C@H](N)C(=O)O", "data": [{"binder": "B1", "values": [{"measurement": "binding result", "setting": "[1]", "value": "no binding"}, {"measurement": "binding result", "setting": "[2]", "value": "no binding"}]}, {"binder": "B2", "values": [{"measurement": "stoichiometry N", "setting": "[3]", "value": 2}, {"measurement": "dimer peak height relative to the monomer peak", "setting": "P51572", "value": "≥35% of the monomer peak height"}]}, {"binder": "B3", "values": [{"measurement": "binding result", "setting": "[4]", "value": "binds"}, {"measurement": "binding result", "setting": "[5]", "value": "no binding"}]}, {"binder": "B4", "values": [{"measurement": "binding result", "setting": "[6]", "value": "binds"}]}]}
